System: AncSZ
Assay: phosphorylation enrichment, bacterial display (enrichment ratio); higher = better substrate or ligand; peptides without Tyr show the background
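Note: 11-residue human phosphosite peptides and single-mutation variants displayed on the E. coli surface, counted by deep sequencing, each peptide's frequency after selection divided by its frequency in the unselected input library; frequency after pTyr selection over input frequency; kinase dosed for 20-30% of maximal phosphorylation in three min.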

| Sequence | phosphorylation enrichment |
| --- | --- |
| MLNTNYHLPPS [MT-ATP8_Y33] | 0.705 |
| FTFNSYFMHWV [IGHV1-46_Y51_T49N_YF] | 1.55 |
| AKAFIYASHIV [ZNF573_Y229_G224A] | 0.962 |
| ETKKQYDSFTF [TMED3_Y85_YF] | 0.7 |
| QRVLLYVRRET [GRHL3_Y518] | 1.01 |
| SLTRLYVGENA [NLRP3_Y861] | 0.725 |
| PFQGAYLKINK [MYO1B_Y967_E969K] | 1.1 |
| LGLDECLDKLK [FMNL2_Y352_Y352C] | 1.91 |
| SEELHYFVQNH [UQCRC2_Y207] | 1.45 |
| TPTFPYLLPKS [PLD2_Y580_YF] | 0.623 |
| GGYNNYGYGND [HNRNPH3_Y159] | 0.802 |
| QDTSRYTVSNL [BIRC3_Y245] | 0.971 |
| RRERLYGGGGG [FUS_Y526_P525L] | 0.701 |
| TVSSDYLHPQF [CCPG1_Y569_F566S_YF] | 1.8 |
| PFTRNYFVQAV [CYBA_Y87_R90Q_YF] | 0.963 |
| PNLILYGDFRQ [MYH7_Y715_R712L] | 1.09 |
| SVTCMYSPALN [TP53_Y126_T125M] | 1.39 |
| RNDQVYQPLRD [CD3D_Y149] | 0.875 |
| KAALSYVSEIG [BPIFB2_Y36] | 0.555 |
| EAVKNYTEKRG [PBRM1_Y672_D674E] | 0.626 |
| EAMPDYKKQLR [SPATA18_Y229_S227P] | 0.608 |
| SHGKRYRVPSD [HHIPL2_Y395] | 0.379 |
| RRYVYYYSYLL [PTEN_Y177] | 0.814 |
| FKEQGYHRLPS [RIN1_Y681_P686S_YF] | 1.23 |
| EVASVYESFQP [MAVS_Y92_Q93E_YF] | 1.91 |
| DFFDLYGGEKK [PTPN11_Y66_F71K_YF] | 1.17 |
| ALIKAYDKAVA [SMN1_Y43] | 0.563 |
| MAFDRYVAICA [OR52J3_Y125_V128I] | 0.939 |
| KLMTEYKKRKQ [ARFGEF3_Y2029] | 0.478 |

Biological target: EPHB1 (UniProt P54762)
Sequence (P54762 whole entry, looked up): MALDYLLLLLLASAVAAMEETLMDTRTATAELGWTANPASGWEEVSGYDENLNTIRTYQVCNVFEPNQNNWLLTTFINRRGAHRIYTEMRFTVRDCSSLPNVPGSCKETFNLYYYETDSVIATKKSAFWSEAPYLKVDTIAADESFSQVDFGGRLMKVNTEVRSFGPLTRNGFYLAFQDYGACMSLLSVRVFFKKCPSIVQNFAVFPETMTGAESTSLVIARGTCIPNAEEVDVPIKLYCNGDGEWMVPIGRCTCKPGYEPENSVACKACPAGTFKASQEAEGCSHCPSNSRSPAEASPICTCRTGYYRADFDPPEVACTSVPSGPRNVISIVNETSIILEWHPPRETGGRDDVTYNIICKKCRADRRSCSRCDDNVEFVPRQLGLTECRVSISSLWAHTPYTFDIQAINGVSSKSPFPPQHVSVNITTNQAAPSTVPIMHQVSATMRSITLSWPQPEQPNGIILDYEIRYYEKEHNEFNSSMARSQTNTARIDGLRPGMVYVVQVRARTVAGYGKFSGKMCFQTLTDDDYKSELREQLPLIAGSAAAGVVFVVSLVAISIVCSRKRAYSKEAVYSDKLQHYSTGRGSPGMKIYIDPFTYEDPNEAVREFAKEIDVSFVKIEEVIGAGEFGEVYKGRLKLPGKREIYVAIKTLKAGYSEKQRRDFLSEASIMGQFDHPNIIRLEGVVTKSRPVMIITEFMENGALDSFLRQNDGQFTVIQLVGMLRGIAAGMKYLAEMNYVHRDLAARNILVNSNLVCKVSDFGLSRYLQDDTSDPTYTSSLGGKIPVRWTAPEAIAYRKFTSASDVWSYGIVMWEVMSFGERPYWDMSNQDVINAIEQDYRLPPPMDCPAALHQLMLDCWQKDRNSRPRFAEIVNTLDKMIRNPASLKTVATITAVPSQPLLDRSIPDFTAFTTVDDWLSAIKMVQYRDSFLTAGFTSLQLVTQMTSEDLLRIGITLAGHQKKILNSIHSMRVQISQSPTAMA
Assay: as above

| Sequence | phosphorylation enrichment |
| --- | --- |
| MLNTNYHLPPS [MT-ATP8_Y33] | 0.617 |
| FTFNSYFMHWV [IGHV1-46_Y51_T49N_YF] | 0.726 |
| AKAFIYASHIV [ZNF573_Y229_G224A] | 0.7 |
| ETKKQYDSFTF [TMED3_Y85_YF] | 0.422 |
| QRVLLYVRRET [GRHL3_Y518] | 0.461 |
| SLTRLYVGENA [NLRP3_Y861] | 0.357 |
| PFQGAYLKINK [MYO1B_Y967_E969K] | 0.539 |
| LGLDECLDKLK [FMNL2_Y352_Y352C] | 1.05 |
| SEELHYFVQNH [UQCRC2_Y207] | 0.647 |
| TPTFPYLLPKS [PLD2_Y580_YF] | 0.44 |
| GGYNNYGYGND [HNRNPH3_Y159] | 1.92 |
| QDTSRYTVSNL [BIRC3_Y245] | 0.675 |
| RRERLYGGGGG [FUS_Y526_P525L] | 0.677 |
| TVSSDYLHPQF [CCPG1_Y569_F566S_YF] | 0.823 |
| PFTRNYFVQAV [CYBA_Y87_R90Q_YF] | 0.601 |
| PNLILYGDFRQ [MYH7_Y715_R712L] | 0.688 |
| SVTCMYSPALN [TP53_Y126_T125M] | 0.738 |
| RNDQVYQPLRD [CD3D_Y149] | 1.26 |
| KAALSYVSEIG [BPIFB2_Y36] | 0.352 |
| EAVKNYTEKRG [PBRM1_Y672_D674E] | 0.318 |
| EAMPDYKKQLR [SPATA18_Y229_S227P] | 0.378 |
| SHGKRYRVPSD [HHIPL2_Y395] | 0.254 |
| RRYVYYYSYLL [PTEN_Y177] | 0.672 |
| FKEQGYHRLPS [RIN1_Y681_P686S_YF] | 1.26 |
| EVASVYESFQP [MAVS_Y92_Q93E_YF] | 1.1 |
| DFFDLYGGEKK [PTPN11_Y66_F71K_YF] | 0.511 |
| ALIKAYDKAVA [SMN1_Y43] | 0.546 |
| MAFDRYVAICA [OR52J3_Y125_V128I] | 1.12 |
| KLMTEYKKRKQ [ARFGEF3_Y2029] | 0.336 |

Biological target: EPHB2 (UniProt P29323)
Sequence (P29323 whole entry, looked up): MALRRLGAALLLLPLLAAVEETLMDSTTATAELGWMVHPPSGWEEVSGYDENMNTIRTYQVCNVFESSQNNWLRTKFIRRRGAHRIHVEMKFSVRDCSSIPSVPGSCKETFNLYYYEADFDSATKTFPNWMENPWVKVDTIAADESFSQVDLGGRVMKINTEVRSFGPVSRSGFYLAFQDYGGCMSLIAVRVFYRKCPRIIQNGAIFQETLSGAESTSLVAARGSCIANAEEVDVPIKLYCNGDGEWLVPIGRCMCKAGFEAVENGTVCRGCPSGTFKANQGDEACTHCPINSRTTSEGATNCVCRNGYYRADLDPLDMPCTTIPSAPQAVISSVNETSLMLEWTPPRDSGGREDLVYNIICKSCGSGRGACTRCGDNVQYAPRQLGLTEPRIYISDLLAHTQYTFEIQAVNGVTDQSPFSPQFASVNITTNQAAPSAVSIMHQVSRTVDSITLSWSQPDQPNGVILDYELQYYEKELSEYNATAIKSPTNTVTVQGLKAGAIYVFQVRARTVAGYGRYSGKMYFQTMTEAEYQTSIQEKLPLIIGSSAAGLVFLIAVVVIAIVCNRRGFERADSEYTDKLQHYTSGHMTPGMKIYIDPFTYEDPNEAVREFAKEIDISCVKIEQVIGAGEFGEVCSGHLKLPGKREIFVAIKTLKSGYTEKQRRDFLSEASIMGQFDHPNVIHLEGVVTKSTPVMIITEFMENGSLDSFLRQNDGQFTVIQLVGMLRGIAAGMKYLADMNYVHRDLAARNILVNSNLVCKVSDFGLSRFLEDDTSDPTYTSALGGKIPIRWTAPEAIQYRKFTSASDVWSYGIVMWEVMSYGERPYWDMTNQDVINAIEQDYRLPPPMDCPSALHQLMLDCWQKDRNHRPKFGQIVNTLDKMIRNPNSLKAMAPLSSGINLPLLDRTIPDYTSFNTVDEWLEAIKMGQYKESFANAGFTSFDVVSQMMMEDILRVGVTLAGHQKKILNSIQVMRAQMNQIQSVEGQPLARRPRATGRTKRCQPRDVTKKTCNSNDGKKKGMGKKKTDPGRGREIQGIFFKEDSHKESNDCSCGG
Assay: as above

| Sequence | phosphorylation enrichment |
| --- | --- |
| MLNTNYHLPPS [MT-ATP8_Y33] | 0.514 |
| FTFNSYFMHWV [IGHV1-46_Y51_T49N_YF] | 0.761 |
| AKAFIYASHIV [ZNF573_Y229_G224A] | 0.771 |
| ETKKQYDSFTF [TMED3_Y85_YF] | 0.397 |
| QRVLLYVRRET [GRHL3_Y518] | 0.577 |
| SLTRLYVGENA [NLRP3_Y861] | 0.521 |
| PFQGAYLKINK [MYO1B_Y967_E969K] | 0.571 |
| LGLDECLDKLK [FMNL2_Y352_Y352C] | 1.37 |
| SEELHYFVQNH [UQCRC2_Y207] | 0.661 |
| TPTFPYLLPKS [PLD2_Y580_YF] | 0.464 |
| GGYNNYGYGND [HNRNPH3_Y159] | 3.79 |
| QDTSRYTVSNL [BIRC3_Y245] | 0.467 |
| RRERLYGGGGG [FUS_Y526_P525L] | 0.398 |
| TVSSDYLHPQF [CCPG1_Y569_F566S_YF] | 0.538 |
| PFTRNYFVQAV [CYBA_Y87_R90Q_YF] | 0.747 |
| PNLILYGDFRQ [MYH7_Y715_R712L] | 0.602 |
| SVTCMYSPALN [TP53_Y126_T125M] | 0.632 |
| RNDQVYQPLRD [CD3D_Y149] | 1.18 |
| KAALSYVSEIG [BPIFB2_Y36] | 0.385 |
| EAVKNYTEKRG [PBRM1_Y672_D674E] | 0.344 |
| EAMPDYKKQLR [SPATA18_Y229_S227P] | 0.394 |
| SHGKRYRVPSD [HHIPL2_Y395] | 0.274 |
| RRYVYYYSYLL [PTEN_Y177] | 0.829 |
| FKEQGYHRLPS [RIN1_Y681_P686S_YF] | 0.603 |
| EVASVYESFQP [MAVS_Y92_Q93E_YF] | 1.01 |
| DFFDLYGGEKK [PTPN11_Y66_F71K_YF] | 0.79 |
| ALIKAYDKAVA [SMN1_Y43] | 0.626 |
| MAFDRYVAICA [OR52J3_Y125_V128I] | 0.659 |
| KLMTEYKKRKQ [ARFGEF3_Y2029] | 0.34 |

Biological target: FGFR1 (UniProt P11362)
Sequence (P11362 whole entry, looked up): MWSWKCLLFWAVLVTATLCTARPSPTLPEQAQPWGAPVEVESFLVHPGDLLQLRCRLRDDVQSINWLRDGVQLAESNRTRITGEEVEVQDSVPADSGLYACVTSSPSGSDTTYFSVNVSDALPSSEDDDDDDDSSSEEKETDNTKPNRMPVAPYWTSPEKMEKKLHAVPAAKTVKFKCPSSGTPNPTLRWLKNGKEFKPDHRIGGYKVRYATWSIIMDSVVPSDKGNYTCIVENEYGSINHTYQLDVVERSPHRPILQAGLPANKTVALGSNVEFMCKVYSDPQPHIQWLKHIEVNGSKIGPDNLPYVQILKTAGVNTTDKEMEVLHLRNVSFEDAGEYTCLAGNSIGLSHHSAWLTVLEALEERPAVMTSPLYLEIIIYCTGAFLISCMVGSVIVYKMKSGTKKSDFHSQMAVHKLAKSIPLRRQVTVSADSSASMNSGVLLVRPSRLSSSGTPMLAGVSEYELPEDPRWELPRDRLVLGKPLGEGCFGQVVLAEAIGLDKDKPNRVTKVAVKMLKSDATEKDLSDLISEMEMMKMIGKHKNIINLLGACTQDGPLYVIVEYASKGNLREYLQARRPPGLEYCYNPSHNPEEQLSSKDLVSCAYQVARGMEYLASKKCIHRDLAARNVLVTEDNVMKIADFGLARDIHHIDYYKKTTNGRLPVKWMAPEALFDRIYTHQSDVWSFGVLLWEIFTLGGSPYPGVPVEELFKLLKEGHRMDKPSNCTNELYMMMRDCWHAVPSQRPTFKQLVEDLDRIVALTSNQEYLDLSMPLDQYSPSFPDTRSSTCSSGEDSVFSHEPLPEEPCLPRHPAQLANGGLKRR
Assay: as above

| Sequence | phosphorylation enrichment |
| --- | --- |
| MLNTNYHLPPS [MT-ATP8_Y33] | 3.4 |
| FTFNSYFMHWV [IGHV1-46_Y51_T49N_YF] | 1.51 |
| AKAFIYASHIV [ZNF573_Y229_G224A] | 0.561 |
| ETKKQYDSFTF [TMED3_Y85_YF] | 0.411 |
| QRVLLYVRRET [GRHL3_Y518] | 0.676 |
| SLTRLYVGENA [NLRP3_Y861] | 0.485 |
| PFQGAYLKINK [MYO1B_Y967_E969K] | 0.417 |
| LGLDECLDKLK [FMNL2_Y352_Y352C] | 1.28 |
| SEELHYFVQNH [UQCRC2_Y207] | 1.12 |
| TPTFPYLLPKS [PLD2_Y580_YF] | 0.503 |
| GGYNNYGYGND [HNRNPH3_Y159] | 0.66 |
| QDTSRYTVSNL [BIRC3_Y245] | 0.516 |
| RRERLYGGGGG [FUS_Y526_P525L] | 0.546 |
| TVSSDYLHPQF [CCPG1_Y569_F566S_YF] | 0.514 |
| PFTRNYFVQAV [CYBA_Y87_R90Q_YF] | 1.16 |
| PNLILYGDFRQ [MYH7_Y715_R712L] | 0.552 |
| SVTCMYSPALN [TP53_Y126_T125M] | 0.481 |
| RNDQVYQPLRD [CD3D_Y149] | 1.17 |
| KAALSYVSEIG [BPIFB2_Y36] | 0.456 |
| EAVKNYTEKRG [PBRM1_Y672_D674E] | 0.394 |
| EAMPDYKKQLR [SPATA18_Y229_S227P] | 0.399 |
| SHGKRYRVPSD [HHIPL2_Y395] | 0.301 |
| RRYVYYYSYLL [PTEN_Y177] | 1.88 |
| FKEQGYHRLPS [RIN1_Y681_P686S_YF] | 2.57 |
| EVASVYESFQP [MAVS_Y92_Q93E_YF] | 0.668 |
| DFFDLYGGEKK [PTPN11_Y66_F71K_YF] | 0.562 |
| ALIKAYDKAVA [SMN1_Y43] | 0.444 |
| MAFDRYVAICA [OR52J3_Y125_V128I] | 0.586 |
| KLMTEYKKRKQ [ARFGEF3_Y2029] | 0.331 |
